# Measurements: US12269859B2, “Synthetic immune receptors and methods of use thereof” (Angeles Therapeutics, Inc., priority 2016, dated 2025)
# B1: 012617-S04 (protein)
# chain: MALPVTALLLPLALLLHAARPLEGKPIPNPLLGLDSTGSGEDLKNVFPPEVAVFEPSKAEIAHTQKATLVCLATGFYPDHVELSWWVNGKEVHSGVCTDPQPLKEQPALNDSRYCLSSRLRVSATFWQNPRNHFRCQVQFYGLSENDEWTQDRAKPVTQIVSAEAWGRADCGITSASYHQGVLSATILYEILLGKATLYAVLVSALVLMAMVKRKDSRGRAKRSGSGATNFSLLKQAGDVEENPGPTSMALPVTALLLPLALLLHAARPDIQMTQSPSSLSASVGDRVTITCRASSSVSYMHWYQQKPGKAPKPLIYAPSNLASGVPSRFSGSGSGTDFTLTISSLQPEDFATYYCQQWSFNPPTFGQGTKVEIKRGGGGSGGGGSGGGGSEVQLVESGGGLVQPGGSLRLSCAASGYTFTSYNMHWVRQAPGKGLEWVGAIYPGNGDTSYNQKFKGRFTISVDKSKNTLYLQMNSLRAEDTAVYYCARVVYYSNSYWYFDVWGQGTLVTVSSTREQKLISEEDGSGIQNPDPAVYQLRDSKSSDKSVCLFTDFDSQTNVSQSKDSDVYITDKCVLDMRSMDFKSNSAVAWSNKSDFACANAFNNSIIPEDTFFPSSDVPCDVKLVEKSFETDTNLNFQNLSVIGFRILLLKVAGFNLLMTLRLWSSRAKRSGSGVKQTLNFDLLKLAGDVESNPGPSRGHMTEYKPTVRLATRDDVPRAVRTLAAAFADYPATRHTVDPDRHIERVTELQELFLTRVGLDIGKVWVADDGAAVAVWTTPESVEAGAVFAEIGPRMAELSGSRLAAQQQMEGLLAPHRPKEPAWFLATVGVSPDHQGKGLGSAVVLPGVEAAERAGVPAFLETSAPRNLPFYERLGFTVTADVEVPEGPRTWCMTRKPGA
# B2: 102715-E07 (protein)
# chain: MALPVTALLLPLALLLHAARPDIQMTQSPSSLSASVGDRVTITCRASQTIWSYLNWYQQRPGKAPNLLIYAASSLQSGVPSRFSGRGSGTDFTLTISSLQAEDFATYYCQQSYSIPQIFGQGTKLEIKLEGKPIPNPLLGLDSTGSGEDLKNVFPPEVAVFEPSKAEIAHTQKATLVCLATGFYPDHVELSWWVNGKEVHSGVCTDPQPLKEQPALNDSRYCLSSRLRVSATFWQNPRNHFRCQVQFYGLSENDEWTQDRAKPVTQIVSAEAWGRADCGITSASYHQGVLSATILYEILLGKATLYAVLVSALVLMAMVKRKDSRGRAKRSGSGATNFSLLKQAGDVEENPGPTSMDWIWRILFLVGAATGAHSFEQVQLQQSGPGLVKPSQTLSLTCAISGDSVSSNSAAWNWIRQSPSRGLEWLGRTYYRSKWYNDYAVSVKSRITINPDTSKNQFSLQLNSVTPEDTAVYYCAREVTGDLEDAFDIWGQGTMVTVSSTREQKLISEEDGSGIQNPDPAVYQLRDSKSSDKSVCLFTDFDSQTNVSQSKDSDVYITDKCVLDMRSMDFKSNSAVAWSNKSDFACANAFNNSIIPEDTFFPSSDVPCDVKLVEKSFETDTNLNFQNLSVIGFRILLLKVAGFNLLMTLRLWSSRAKRSGSGVKQTLNFDLLKLAGDVESNPGPSRGHMTEYKPTVRLATRDDVPRAVRTLAAAFADYPATRHTVDPDRHIERVTELQELFLTRVGLDIGKVWVADDGAAVAVWTTPESVEAGAVFAEIGPRMAELSGSRLAAQQQMEGLLAPHRPKEPAWFLATVGVSPDHQGKGLGSAVVLPGVEAAERAGVPAFLETSAPRNLPFYERLGFTVTADVEVPEGPRTWCMTRKPGA
# modifications: Synthetic Immune Receptor (SIR)
# B3: 050516-V06 (protein)
# chain: MALPVTALLLPLALLLHAARPDIVMTQSPSSLSASVGDRVTITCKASQSVTNDVAWYQQKPGKAPKLLIYYASNRYTGVPSRFSGSGSGTDFTLTISSLQPEDFATYYCQQDYRSPWTFGGGTKVEIKRLEGKPIPNPLLGLDSTGSGEDLKNVFPPEVAVFEPSKAEIAHTQKATLVCLATGFYPDHVELSWWVNGKEVHSGVCTDPQPLKEQPALNDSRYCLSSRLRVSATFWQNPRNHFRCQVQFYGLSENDEWTQDRAKPVTQIVSAEAWGRADCGITSASYHQGVLSATILYEILLGKATLYAVLVSALVLMAMVKRKDSRGRAKRSGSGATNFSLLKQAGDVEENPGPTSMDWIWRILFLVGAATGAHSFEQVQLEESGGGVVRPGRSLRLSCAASGFTFSDYGVNWIRQAPGKGLEWVTIIWGDGRTDYNSALKSRFTVSRNNSNNTLSLQMNSLTTEDTAVYYCVRAPGNRAMEYWGQGVLVTVSSTREQKLISEEDGSGIQNPDPAVYQLRDSKSSDKSVCLFTDFDSQTNVSQSKDSDVYITDKCVLDMRSMDFKSNSAVAWSNKSDFACANAFNNSIIPEDTFFPSSDVPCDVKLVEKSFETDTNLNFQNLSVIGFRILLLKVAGFNLLMTLRLWSSRAKRSGSGVKQTLNFDLLKLAGDVESNPGPSRGHMTEYKPTVRLATRDDVPRAVRTLAAAFADYPATRHTVDPDRHIERVTELQELFLTRVGLDIGKVWVADDGAAVAVWTTPESVEAGAVFAEIGPRMAELSGSRLAAQQQMEGLLAPHRPKEPAWFLATVGVSPDHQGKGLGSAVVLPGVEAAERAGVPAFLETSAPRNLPFYERLGFTVTADVEVPEGPRTWCMTRKPGA
# modifications: Synthetic Immune Receptor (SIR)
# B4: 041216-C05 (protein)
# chain: MALPVTALLLPLALLLHAARPDIQMTQSPSSLSASVGDRVTITCRSSQSIVHSVGNTFLEWYQQKPGKAPKLLIYKVSNRFSGVPSRFSGSGSGTDFTLTISSLQPEDFATYYCFQGSQFPYTFGQGTKVEIKRLEGKPIPNPLLGLDSTGSGEDLKNVFPPEVAVFEPSKAEIAHTQKATLVCLATGFYPDHVELSWWVNGKEVHSGVCTDPQPLKEQPALNDSRYCLSSRLRVSATFWQNPRNHFRCQVQFYGLSENDEWTQDRAKPVTQIVSAEAWGRADCGITSASYHQGVLSATILYEILLGKATLYAVLVSALVLMAMVKRKDSRGRAKRSGSGATNFSLLKQAGDVEENPGPTSMDWIWRILFLVGAATGAHSFEEVQLVESGGGLVQPGGSLRLSCAASGYEFSRSWMNWVRQAPGKGLEWVGRIYPGDGDTNYSGKFKGRFTISADTSKNTAYLQMNSLRAEDTAVYYCARDGSSWDWYFDVWGQGTLVTVSSTREQKLISEEDGSGTPFPSLAPPIMLLVDGKQQMVVVCLVLDVAPPGLDSPIWFSAGNGSALDAFTYGPSPATDGTWTNLAHLSLPSEELASWEPLVCHTGPGAEGHSRSTQPMHLSGEASTARTCPQEPLRGTPGGALWLGVLRLLLFKLLLFDLLLTCSCLCDPAGPLPSPATTTRLRALGSHRLHPATETGGREATSSPRPQPRDRRWGDTPPGRKPGSPVRAKRSGSGVKQTLNFDLLKLAGDVESNPGPSRGHMTEYKPTVRLATRDDVPRAVRTLAAAFADYPATRHTVDPDRHIERVTELQELFLTRVGLDIGKVWVADDGAAVAVWTTPESVEAGAVFAEIGPRMAELSGSRLAAQQQMEGLLAPHRPKEPAWFLATVGVSPDHQGKGLGSAVVLPGVEAAERAGVPAFLETSAPRNLPFYERLGFTVTADVEVPEGPRTWCMTRKPGA
# modifications: Polynucleotide encoding a Synthetic Immune Receptor (SIR)
# B5: 091216-A03 (protein)
# chain: MALPVTALLLPLALLLHAARPLEGKPIPNPLLGLDSTGSGEDLKNVFPPEVAVFEPSKAEIAHTQKATLVCLATGFYPDHVELSWWVNGKEVHSGVCTDPQPLKEQPALNDSRYCLSSRLRVSATFWQNPRNHFRCQVQFYGLSENDEWTQDRAKPVTQIVSAEAWGRADCGITSASYHQGVLSATILYEILLGKATLYAVLVSALVLMAMVKRKDSRGRAKRSGSGATNFSLLKQAGDVEENPGPTSTMALPVTALLLPLALLLHAARPDIQMTQSPSSLSASVGDRVTITCRSSQSIVHSVGNTFLEWYQQKPGKAPKLLIYKVSNRFSGVPSRFSGSGSGTDFTLTISSLQPEDFATYYCFQGSQFPYTFGQGTKVEIKRGGGGSGGGGSGGGGSEVQLVESGGGLVQPGGSLRLSCAASGYEFSRSWMNWVRQAPGKGLEWVGRIYPGDGDTNYSGKFKGRFTISADTSKNTAYLQMNSLRAEDTAVYYCARDGSSWDWYFDVWGQGTLVTVSSTREQKLISEEDGSGIQNPDPAVYQLRDSKSSDKSVCLFTDFDSQTNVSQSKDSDVYITDKCVLDMRSMDFKSNSAVAWSNKSDFACANAFNNSIIPEDTFFPSSDVPCDVKLVEKSFETDTNLNFQNLSVIGFRILLLKVAGFNLLMTLRLWSSRAKRSGSGVKQTLNFDLLKLAGDVESNPGPSRGHMTEYKPTVRLATRDDVPRAVRTLAAAFADYPATRHTVDPDRHIERVTELQELFLTRVGLDIGKVWVADDGAAVAVWTTPESVEAGAVFAEIGPRMAELSGSRLAAQQQMEGLLAPHRPKEPAWFLATVGVSPDHQGKGLGSAVVLPGVEAAERAGVPAFLETSAPRNLPFYERLGFTVTADVEVPEGPRTWCMTRKPGA
# modifications: Synthetic Immune Receptor (SIR)
# B6: 081516-I03 (protein)
# chain: MALPVTALLLPLALLLHAARPLEGKPIPNPLLGLDSTGSGEDLKNVFPPEVAVFEPSKAEIAHTQKATLVCLATGFYPDHVELSWWVNGKEVHSGVCTDPQPLKEQPALNDSRYCLSSRLRVSATFWQNPRNHFRCQVQFYGLSENDEWTQDRAKPVTQIVSAEAWGRADCGITSASYHQGVLSATILYEILLGKATLYAVLVSALVLMAMVKRKDSRGRAKRSGSGATNFSLLKQAGDVEENPGPTSTMALPVTALLLPLALLLHAARPDIVMTQSPSSLSASVGDRVTITCKASQSVTNDVAWYQQKPGKAPKLLIYYASNRYTGVPSRFSGSGSGTDFTLTISSLQPEDFATYYCQQDYRSPWTFGGGTKVEIKRGGGGSGGGGSGGGGSQVQLEESGGGVVRPGRSLRLSCAASGFTFSDYGVNWIRQAPGKGLEWVTIIWGDGRTDYNSALKSRFTVSRNNSNNTLSLQMNSLTTEDTAVYYCVRAPGNRAMEYWGQGVLVTVSSTREQKLISEEDLGSGTPFPSLAPPIMLLVDGKQQMVVVCLVLDVAPPGLDSPIWFSAGNGSALDAFTYGPSPATDGTWTNLAHLSLPSEELASWEPLVCHTGPGAEGHSRSTQPMHLSGEASTARTCPQEPLRGTPGGALWLGVLRLLLFKLLLFDLLLTCSCLCDPAGPLPSPATTTRLRALGSHRLHPATETGGREATSSPRPQPRDRRWGDTPPGRKPGSPVRAKRSGSGVKQTLNFDLLKLAGDVESNPGPSRSRGHMTEYKPTVRLATRDDVPRAVRTLAAAFADYPATRHTVDPDRHIERVTELQELFLTRVGLDIGKVWVADDGAAVAVWTTPESVEAGAVFAEIGPRMAELSGSRLAAQQQMEGLLAPHRPKEPAWFLATVGVSPDHQGKGLGSAVVLPGVEAAERAGVPAFLETSAPRNLPFYERLGFTVTADVEVPEGPRTWCMTRKPGA
# modifications: Polynucleotide encoding a Synthetic Immune Receptor (SIR)
# System: target antigen-expressing cell line
# Assay: Jurkat NFAT-GFP assay, coculture with target cell lines expressing the respective target antigen (summary Table 10A)
# Type: cell-based, human
# Parameters: key: The signs +/−, +, 2+ etc. after the name of the cell lines indicate the relative degree of positivity on the Jurkat-NFAT-GFP assay as measured by the % GFP positive cells; +: relative degree of positivity on the Jurkat-NFAT-GFP assay as measured by the % GFP positive cells; 2+: relative degree of positivity on the Jurkat-NFAT-GFP assay as measured by the % GFP positive cells
# Conditions: relative % GFP positive cells; for NFAT-GFP ASSAY Positive Cell lines: NALM6: SIR-expressing Jurkat-NFAT-GFP cells cocultured with NALM6; for NFAT-GFP ASSAY Positive Cell lines: RAJI: SIR-expressing Jurkat-NFAT-GFP cells cocultured with RAJI
# Summary of the method: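 Readout is % GFP+ cells by FACS, graded +/− to 2+ relative to parental reporter cells. Jurkat-NFAT-GFP cells stably transduced with SIR constructs (puromycin-selected) were mixed with target-antigen-expressing cell lines at roughly 1:2 effector:target and cocultured ~4–18 h.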
Molecule,NFAT-GFP ASSAY Positive Cell lines: NALM6,NFAT-GFP ASSAY Positive Cell lines: RAJI
B1,(+/−),–
B2,–,RAJI (+)
B3,–,RAJI (+/−)
B4,(+/−),"RAJI (+/−), NALM6"
B5,–,RAJI (+)
B6,–,RAJI (+/−)
